Test: yeast display, Sf9 membrane polyspecificity reagent, FACS + sequencing; frameworks hold sequencing errors
How it was run: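 After 36–48 hours of galactose induction, yeast (Saccharomyces cerevisiae BJ5465) displaying a synthetic nanobody library were stained at 4 °C for 1 hour with 10% biotinylated, detergent-solubilized Sf9 membrane reagent. Streptavidin microbeads enriched the stained cells before FACS sorting into low and high (top ~1%) gates on anti-HA and streptavidin fluorescence. Each clone's polyreactivity label reflects its gate of origin.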

Sequence | polyreactivity (PSR sort gate)
QVQLVESGGGLVQAGGSLRLSCAASVSTFVRYAMGWYRPAPGKDRELVAAIDGGGTTKYADSVKGRFTISRDNAKNTVYLQMNSLKTEDTAVYYCAADQVWGYDSWGQGTQVTVSS | low polyreactivity
QVQLVESGGGLVQAGGSLRLSCAASGRIFYKNDLGWYRQAPGTETELVATLTYSDGTTYYADSVKGRFTISRDNAKNTVYLQMNSLKPEDTAVYYCAAQTDSVESDYWGQGTQVTVSS | low polyreactivity
QVQLVESGGGLVQAGRILRLSCAASGRTFDSNAMGWYRQAPGKERELVAAISYGGGTTHYADSVKGRFTISRDNAKNTVYLQMNSLKPEYTAVYYCSADPEHLCESVTIGEYDYWGQGTQVTLSS | low polyreactivity
QVQLVDSGGGLVQAGGSLRLSCAASGRIFPYYTMGCYRQAPGKETEFVAAISSSSVSTYYADSVKGRFTISRDNAKNTVYLQMNSLKAEDTAVYYCAAKRVGYHIGYVYPYGYWGQGTQVTVSS | high polyreactivity
QVQLVESGGGLVQAGGSRRLSCAASGLIFDKAMGWYRQAPGKQREFVAAITYSTGSTYYADSVKGRFTISRDNAKNTVYLQMNSLKPEDTAVYYCAKDGSGHGTERDYWGQGTQVTVSS | low polyreactivity
QVKLVESGGGLVQAGGSLRLSCAASGFTFTQYGLGWNRQAPGKEREFVATIRFSGDNTYYADSVKGRFTISRDNAKNTVYLQMNSLKPEDTAVYYCNADNRAFFVYPVSKRYDSWGQGTQVTVSS | low polyreactivity
QVQLVESGGGLVQAGGSLRLICAASGRIFGYYAMGWYRQAPGKERELVAAIDGSDGTTYYADSVKGRFTISRDNAKNTVYFHMNSLKPEDTAVYYCAKDNSLPDYDYWGQGTQVTVSS | low polyreactivity
QVQLVESGGGLVQAGGRLRLSCAASGSIFYNYAMGWYRQAPGKERELVAAITRSGGSTYYADSVKGRFTISRDNAKNTVYLQMNSLKPEDTAVYYCAARYPFGSLGRYGYWGQGTQVTVSS | high polyreactivity
QVQLVESGGGLVQAGGSLRLSCAASGSTFGYYGMGWYRQAPGKERELVAAISTGGRTNYADSVKGRFTISRDNAKNTVYLQMNSLKPEDTAVYYCAADFLSAAYRPSWYRFDYWGQGTQVTVSS | low polyreactivity
QVQLVESGGGLVQAGGSLRFSCAASGSTFGFNAMGWYRQAPGKERELLPLFWSGGSTYYADSVNGRFTISRDNAKNSVYLQMNSLKPDDTAVYYCNKDSTPITRYDYWGQGTQVTVSS | low polyreactivity
QVQLVESGGGVVQAGGSLRLSCAASGITFTVNAIGWYRQAPGKDREFFAAITYSGGNTYYADSVKGRFTISRDNAKNTVYLQMNSLTPEDTAVYYCNSDSAVGIVGARFFYDYWGQGTQVTVSS | low polyreactivity
QVQLVDSGGGLVHAGGSLSLSCAASGRIFSHYALGWYRQAPGKERELVAAISSRGGRTYYADSVKGRFTISRDNAKNTVYLQMNSLKPEDPAVYYCAAVIRSVYSYYEYDYWGQCTQVTVSS | high polyreactivity
QVQLVESGGGLVQAGGSLRLICAASGRTFCAYAMGWYRQAPGKERELVAAITTSGGSTNYADSVKGRFTISRDTAKYTVYLEMKSLKPEETAVYYCNADPTYHVVNGVGFWGQGTQVTVSS | low polyreactivity
QVQLVESGGGLVQAGGSLLLSCAASGFTFRYYAMGWNRQAPGKERELVAAINSGGSTNYADSVKGLFTISRDNAKNTVYLQMNSLKPEDTAVYYCAKRGRRGIEYLGSAEMDYWGEGTQVTVSS | low polyreactivity
QVQLVDSGGGLVQAGGRLRLSCAASGRTFYRNAMGWDSQAPGKERELVAAITSGGSTYYADSVKGRFTISRDTAKNTGYLQMNSLKPEDTAVYYCAALRHALRYDYWGQGTQVTVSS | low polyreactivity
QVHLVESGGGLVQAGGSLRLSCAASGITFRYYAMGWYRQAPGKERELVAVISTSGGSTYYADSVKGRFTISRDNAKNTVYLQMNSLKPEDTAVYYCAVVWPYSERYYYWGQGTQVTVSS | high polyreactivity
QVQLQESGGGLVQAGGSLRLSCAASGYISLAQTIGWFRQAPGKEREFVASIALGSSTYYTDSVKGSFTISRDNAKTTVYLQMNSLKPDDTAVYYCAARVGASYAHDYWGQGTQVTVSS | low polyreactivity
QVQLVESGGGLVQAGGSLRLSCAASGSTFPSYAMGWYRQAPGKERELVAAINSGGGTNYADSVKGRFTISRDTAKNTVYLQMNSLKPEDTAVYYCAKARYDYTKPEGGYWGQGTHVTVSS | low polyreactivity
QVQLVESGGGLVQAGGSLRLSCAASGSIFSRYAMGWYRTAPGKERELVAAINKSGGSTYYADSVKGRFTISRDNAKNTVYLQMNSLKPEDTAVYYCNAVYYWYKGDYWGQGTQVTVSS | high polyreactivity
QVQLVESGGGLVQAGGSLRLSCAASVYTFKSYAMGWYRQAPGKERELVASISNDGSTNYADSVKGRFTISRDNAKNTVYLQMNSLKPEDTAVYYCNADFYDAPSQWARTGFDYWGQGTQVTVSS | low polyreactivity
QVQLVESGGGLVQAGGSLRLSCAASGSIFYPYDMGWYRQAPGKERELVATINWSSGRTNYADSVKGRFTISRDNAKNTVYLQMNSLKPEDTAVYYCNAVTYSRRYAYYYWGQATQVTVSS | high polyreactivity
